Substitutions are numbered along the chain they refer to. Numbers in names are those of the source.
T1: cynomolgus monkey transferrin receptor 1 (cTfR1) (cynomolgus monkey (Macaca fascicularis), UniProt Q5RDH6 89-760 (Pongo abelii entry), limits assumed)
T1 construct: Recombinant cynomolgus TfR1; also called cyTfR1; cyno TfR1
T1 chain: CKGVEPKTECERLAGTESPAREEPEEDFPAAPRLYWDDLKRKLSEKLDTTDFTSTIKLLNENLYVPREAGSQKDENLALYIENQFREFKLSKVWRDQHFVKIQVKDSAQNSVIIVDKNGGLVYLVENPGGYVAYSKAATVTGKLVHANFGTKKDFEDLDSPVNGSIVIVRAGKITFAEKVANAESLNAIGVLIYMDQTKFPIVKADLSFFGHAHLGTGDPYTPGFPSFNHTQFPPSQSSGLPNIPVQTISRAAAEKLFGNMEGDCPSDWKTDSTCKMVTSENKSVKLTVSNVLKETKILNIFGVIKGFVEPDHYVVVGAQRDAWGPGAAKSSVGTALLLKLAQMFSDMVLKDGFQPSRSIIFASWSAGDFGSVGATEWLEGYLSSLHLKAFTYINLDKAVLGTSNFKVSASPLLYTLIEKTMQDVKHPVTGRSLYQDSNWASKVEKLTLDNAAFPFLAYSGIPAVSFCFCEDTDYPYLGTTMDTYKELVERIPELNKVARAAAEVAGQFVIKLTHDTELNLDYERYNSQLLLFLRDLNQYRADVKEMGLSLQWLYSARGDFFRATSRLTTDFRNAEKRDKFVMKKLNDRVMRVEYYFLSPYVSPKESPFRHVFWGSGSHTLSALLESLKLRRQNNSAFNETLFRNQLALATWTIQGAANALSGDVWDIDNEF

B1: 5-H12 mouse monoclonal anti-TfR1 antibody (antibody, V domains shown)
VH: QIQLQQSGPELVRPGASVKISCKASGYSFTDYCINWVNQRPGQGLEWIGWIYPGSGNTRYSERFKGKATLTVDTSSNTAYMQLSSLTSEDSAVYFCAREDYYPYHGMDYWGQGTSVTVSS
VL: DIVLTQSPTSLAVSLGQRATISCRASESVDGYDNSFMHWYQQKPGQPPKLLIFRASNLESGIPARFSGSGSRTDFTLTINPVEAADVATYYCQQSSEDPWTFGGGTKLEIK
notes: Mouse mAb (IgG)
B2: humanized anti-TfR Fab 3M12 VH4/Vk3 (Fab, V domains shown)
VH: QVQLQESGPGLVKPSQTLSLTCTVTGYSITSGYYWNWIRQPPGKGLEWIGYITFDGANNYNPSLKNRVSISRDTSKNQFSLKLSSVTAEDTATYYCTRSSYDYDVLDYWGQGTTVTVSS
VL: DIQMTQSPSSLSASVGDRVTITCRASQDISNFLNWYQQKPGQPVKLLIYYTSRLHSGVPSRFSGSGSGTDFTLTISSLQPEDFATYYCQQGHTLPYTFGQGTKLEIKR
B3: humanized anti-TfR Fab 3A4 VH3 (N54S)/Vk4 (Fab, V domains shown)
VH: EVQLVQSGSELKKPGASVKVSCTASGFNIKDDYMYWVRQPPGKGLEWIGWIDPESGDTEYASKFQDRVTVTADTSTNTAYMELSSLRSEDTAVYYCTLWLRRGLDYWGQGTLVTVSS
VL: DIVMTQSPLSLPVTPGEPASISCRSSKSLLHSNGYTYLFWFQQRPGQSPRLLIYRMSNLASGVPDRFSGSGSGTDFTLKISRVEAEDVGVYYCMQHLEYPFTFGGGTKVEIKR
B4: humanized anti-TfR Fab 3A4 VH3/Vk4 (Fab, V domains shown)
VH: B3 VH with S55N
VL: B3 VL
B5: 3-A4 mouse monoclonal anti-TfR1 antibody (antibody, V domains shown)
VH: EVQLQQSGAELVRPGASVKLSCTASGFNIKDDYMYWVKQRPEQGLEWIGWIDPENGDTEYASKFQDKATVTADTSSNTAYLQLSSLTSEDTAVYYCTLWLRRGLDYWGQGTSVTVSS
VL: DIVMTQAAPSVPVTPGESVSISCRSSKSLLHSNGYTYLFWFLQRPGQSPQLLIYRMSNLASGVPDRFSGSGSGTAFTLRISRVEAEDVGVYYCMQHLEYPFTFGGGTKLEIK
notes: Mouse mAb (IgG); also called 3-A04
B6: 15G11 (control anti-TfR1 antibody) (antibody, V domains shown)
VH: QVQLQQPGAELVKPGASVKLSCKASGYTFTSYWMHWVKQRPGQGLEWIGEINPTNGRTNYIEKFKSKATLTVDKSSSTAYMQLSSLTSEDSAVYYCARGTRAYHYWGQGTSVTVSS
VL: DIQMTQSPASLSVSVGETVTITCRASDNLYSNLAWYQQKQGKSPQLLVYDATNLADGVPSRFSGSGSGTQYSLKINSLQSEDFGTYYCQHFWGTPLTFGAGTKLELK
B7: 3-M12 mouse monoclonal anti-TfR1 antibody (antibody, V domains shown)
VH: DVQLQESGPGLVKPSQSLSLTCSVTGYSITSGYYWNWIRQFPGNKLEWMGYITFDGANNYNPSLKNRISITRDTSKNQFFLKLTSVTTEDTATYYCTRSSYDYDVLDYWGQGTTLTVSS
VL: DIQMTQTTSSLSASLGDRVTISCRASQDISNFLNWYQQRPDGTVKLLIYYTSRLHSGVPSRFSGSGSGTDFSLTVSNLEQEDIATYFCQQGHTLPYTFGGGTKLEIK
notes: Mouse mAb (IgG)

Legend:
[1] = target: T1, cynomolgus monkey transferrin receptor …; test: average KD, antibody alone; method not given
[2] = target: T1, cynomolgus monkey transferrin receptor …; test: ELISA, cyno TfR1, Fab, day 0 of thermal stability test
[3] = target: T1, cynomolgus monkey transferrin receptor …; test: surface plasmon resonance
[4] = target: T1, cynomolgus monkey transferrin receptor …; test: ELISA, cyno TfR1, Fab after 9 days at 40 C
[5] = target: T1, cynomolgus monkey transferrin receptor …; test: ELISA on plate-coated cyno TfR1, unconjugated Fab
[6] = target: T2, TfR1 (species not stated; Biacore analyses of Table 14 and Table 16) (Homo sapiens (Human), UniProt P02786 89-760); test: Biacore kinetic analysis; set-up: unit not given here
T2 construct: also called target antigen

[7] = target: T3, human transferrin receptor 1 (hTfR1) (human, UniProt P02786 89-760); test: average KD, antibody alone; method not given
T3 construct: Recombinant human TfR1; also called huTfR1; Human TfR1

[8] = target: T3, human transferrin receptor 1 (hTfR1); test: Carterra LSA SPR, IgG captured on anti-IgG chip, hTfR1 injected, 25 C, 1:1 fit

Kd [1] [nM] | Binding affinity cyno TfR1 d 0 [2] [nM] | Binding affinity cyno TfR1 d 9 [4] [nM] | Fab binding affinity ELISA [5] [nM] | also measured | Binder
12 | – | – | – | – | B1
– | 2.2 | 16.4 | 2.2 | Kd [3]: 5.18 nM; koff [3]: 0.000476 s⁻¹; kon [3]: 91900 M⁻¹ s⁻¹ | B2
– | 398 | 248 | 398 | koff [6]: 65.6 | B3
– | 122 | 878 | 122 | koff [6]: 115 | B4
2.32 | – | – | – | – | B5
1 | – | – | – | Kd [7]: 0.8 nM; Kd [8]: 0.283 nM | B6
5.18 | – | – | – | – | B7
